{"source": "paper PMC7013464", "target": "Gab2 608-620 (Homo sapiens), Q9UQC2", "assay": "flow"}
{"binder": "SHP2 N-SH2, Q06124 (protein) WFHPNITGVEAENLLLTRGVDGSFLARPSKSNPGDFALSVRRNGAVTHIKIQNTGDYYDLYGGEKFATLAELVQYYMEHHGQLKEKNGDVIELKYPL", "values": [{"measurement": "Kd", "result": 1.7, "unit": "nM"}]}
{"binder": "SHP2 N-SH2, Q06124 (protein) WFHPNITGVEAENLLLTRGVDGSFLARPSKSNPGDFSLSVRRNGAVTHIKIQNTGDYYDLYGGEKFATLAELVQYYMEHHGQLKEKNGDVIELKYPL", "values": [{"measurement": "Kd", "result": 5.3, "unit": "nM"}]}
